# Laboratory results published in article PMC6681339, “CoCUN, a Novel Ubiquitin Binding Domain Identified in N4BP1” (Biomolecules, 2019).
# No end group written: not given here.
# B1: CoCUN domain of N4BP1 (aa 847–896), purified polypeptide (domain or fragment, human, UniProt O75113 847-896, looked up)
# chain: AQRSSAETNELREALLKIFPDSEQRLKIDQILVAHPYMKDLNALSAMVLD
# modifications: also: 15N isotopic labelling
# notes: also called Cousin of CUBAN; N4BP1 UBD; source: bacterial expression (protocol for NMR sample preparation), purified
# Legend:
# [1] = biological target: T1, ubiquitin (UniProt P0CG48 1-76, 15N labelled in the complementary NMR experiment; unlabelled otherwise); assay: ITC; 3.3 mM ubiquitin titrated to 246 µM N4BP1 (847-896) in the cell; 20 mM Tris-HCl pH 8.0, 150 mM NaCl, 5% glycerol; room temperature; one-site binding model; conditions: both partners purified
# T1 construct: the model of the complex used the ubiquitin structure PDB 1D3Z and BMRB 6457; also called monoubiquitin; UBQ
# [2] = biological target: T1, ubiquitin; assay: ITC; 2.78 mM N4BP1 (847-896) titrated to 200 µM ubiquitin in the cell; 20 mM Tris-HCl pH 8.0, 150 mM NaCl, 5% glycerol; room temperature; one-site binding model; conditions: both partners purified
binder,measurement,setting,value
B1,Kd,[1],49.7 ± 3.6 µM
same,Kd,[2],61.8 ± 5.2 µM
same,dH,[2],-3.11 ± 0.0956 kcal/mol
